LogEC50 data for 1 molecule are collected here from patent publication US20240350646A1, “METHODS AND COMPOSITIONS FOR DELIVERY TO AND ACROSS THE BLOOD BRAIN BARRIER” (NUtech Ventures, priority 2021, published 2024).

The target in the assay is T1, human claudin-9 (human, UniProt O95484 1-217, limits assumed).
T1 sequence (looked up): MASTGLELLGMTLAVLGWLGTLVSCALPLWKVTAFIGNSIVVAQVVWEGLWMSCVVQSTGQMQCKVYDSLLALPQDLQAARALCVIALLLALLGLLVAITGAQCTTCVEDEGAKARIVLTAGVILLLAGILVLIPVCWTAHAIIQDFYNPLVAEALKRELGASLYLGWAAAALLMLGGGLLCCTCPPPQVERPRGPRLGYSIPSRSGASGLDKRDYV
As to the kind of experiment: MST, sigmoidal dose-response fit (GraphPad Prism) of the FIG. 10A data; fit did not converge [panel B]. As to the method: FIG. 10C is a graph showing the binding of human claudins 4 and 9 to control NPs monitored using microscale thermophoresis. […] Data fitting for human claudins 3, 4 and 9 were performed using Graph Pad Prism.
Human claudin-1 was expressed and purified as reported previously (Vecchio & Stroud, 2019, PNAS USA, 116:17817-24). MST measurements were performed using a Monolith instrument (NanoTemper Technologies). For experiments with human claudin-1, the assay buffer contained 10 mM Tris HCl, pH 8.0, 100 mM NaCl, 4% glycerol, and 0.04% n-Dodecyl-β-D-Maltopyranoside (β-DDM). NPs and peptides were labeled with AF647 prior to MST analysis as described above. For the binding experiments, the concentration of human claudin-1 was varied from 2.2-73,500 nM and the AF647-labeled C1C2-NP was fixed at 70 nM, while the AF647 labeled NPs and AF647 labeled C1C2 peptide were fixed at 1 and 0.3 μM, respectively. Binding of the AF647 labeled C1C2-NP to human claudin-3, -4, and -9 were tested using 0.4-14000 nM, 0.8-28000 nM, and 0.6-20000 nM, respectively; with the AF647 labeled C1C2-NP fixed at 70 nM. […] All experiments were conducted at 23° C. using the nano-red channel of the Monolith instrument and the data were analyzed by using either Monolith analysis software or Graph Pad Prism, version 9 (Graph Pad Software, San Diego, California).

B1: C1C2-NP (C1C2 peptide conjugated to PEG diacid coated ultrasmall Gd nanoparticles) (peptide)
peptide: Ac-SSVSQSTGQIQSKVDSLLNLNSTQATR-NH2
modifications: not fully specified; also: conjugated by EDC-NHS chemistry to PEG diacid on Gd oxide nanoparticle surface (19 peptides per 3.5 nm particle)
notes: The protein part is the C1C2 peptide; the core is not a protein; also called C1C2-NPs; C1C2 NPs
Molecule B1 registered a LogEC50 of -0.661.
